Article PMC11544177 (Acta Pharmaceutica Sinica. B, 2024)
One block for each molecule: values may come before it.

Tests used:
[1] = target: T1, mitochondrial acetyl-CoA acetyltransferase 1 (ACAT1) (Homo sapiens, UniProt P24752); experiment: SPR; assay type: binding
T1 sequence (P24752 34-427): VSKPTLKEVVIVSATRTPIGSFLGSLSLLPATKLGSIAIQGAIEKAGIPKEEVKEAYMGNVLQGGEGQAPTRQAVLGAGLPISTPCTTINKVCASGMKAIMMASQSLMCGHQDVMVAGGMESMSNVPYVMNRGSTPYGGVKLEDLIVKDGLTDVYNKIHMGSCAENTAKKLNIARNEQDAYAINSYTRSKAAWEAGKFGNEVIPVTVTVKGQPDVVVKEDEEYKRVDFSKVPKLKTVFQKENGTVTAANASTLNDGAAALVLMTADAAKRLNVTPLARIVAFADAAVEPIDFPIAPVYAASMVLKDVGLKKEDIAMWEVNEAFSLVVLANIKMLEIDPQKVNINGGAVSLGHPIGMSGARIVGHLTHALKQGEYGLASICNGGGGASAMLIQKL

[2] = target: mitochondrial acetyl-CoA acetyltransferase 1 (ACAT1), purified recombinant human, His-tagged (human) (UniProt P24752); experiment: negative-stain electron microscopy
[3] = target: mitochondrial acetyl-CoA acetyltransferase 1 (ACAT1), purified recombinant human, His-tagged (human) (UniProt P24752); experiment: native gel or EMSA
[4] = target: mitochondrial acetyl-CoA acetyltransferase 1 (ACAT1), purified recombinant human, His-tagged (human) (UniProt P24752); experiment: cryo-EM structure
[5] = target: the molecule itself; experiment: native gel or EMSA

- Kd [1]: ~2580 nM
Molecule: O=C(/C=C/c1ccc(O)c(O)c1)O[C@@H]1C[C@](O)(C(=O)O)C[C@@H](O)[C@H]1O [CGA, Chlorogenic acid]

- stoichiometry N [2]: 4
- stoichiometry N [3]: 4
- stoichiometry N [4]: 4
Molecule: mitochondrial acetyl-CoA acetyltransferase 1 (ACAT1), purified recombinant human, His-tagged (from UniProt P24752 34-427) (enzyme)

B1: ACAT1, endogenous in A375 human melanoma cells (enzyme, human (endogenous in A375), UniProt P24752 34-427, looked up)
chain: VSKPTLKEVVIVSATRTPIGSFLGSLSLLPATKLGSIAIQGAIEKAGIPKEEVKEAYMGNVLQGGEGQAPTRQAVLGAGLPISTPCTTINKVCASGMKAIMMASQSLMCGHQDVMVAGGMESMSNVPYVMNRGSTPYGGVKLEDLIVKDGLTDVYNKIHMGSCAENTAKKLNIARNEQDAYAINSYTRSKAAWEAGKFGNEVIPVTVTVKGQPDVVVKEDEEYKRVDFSKVPKLKTVFQKENGTVTAANASTLNDGAAALVLMTADAAKRLNVTPLARIVAFADAAVEPIDFPIAPVYAASMVLKDVGLKKEDIAMWEVNEAFSLVVLANIKMLEIDPQKVNINGGAVSLGHPIGMSGARIVGHLTHALKQGEYGLASICNGGGGASAMLIQKL
- stoichiometry N [5]: 4
